The record followed here is US20030036091A1.

Experiment [1] concerns the target Helicobacter pylori LuxS (Helicobacter pylori). The experiment in a line: X-ray crystal structure, homodimer interface.
The target of experiment [2] is Deinococcus radiodurans LuxS (Deinococcus radiodurans). The experiment in a line: X-ray crystal structure, P21 form, homodimer interface.
The target is the same in experiment [3]. Description: X-ray crystal structure, C2 form, crystallographic dimer interface.
Experiment [4] has as its target Haemophilus influenzae LuxS (Haemophilus influenzae). Description: X-ray crystal structure, homodimer interface.

With Helicobacter pylori LuxS (enzyme), the surface area buried through this interaction in experiment [1] came out at 4180 Å^2.

As for Deinococcus radiodurans LuxS (enzyme), the surface area buried through this interaction in experiment [2] turned out to be 3930 Å^2; in experiment [3], 3200 Å^2.

In experiment [4], Haemophilus influenzae LuxS (enzyme) showed a surface area buried through this interaction of 4160 Å^2.
